In the RNAGym collection of RNA variant scans (doi:10.1073/pnas.2313332121):

B1: TPR t1 (parent)
chain: GACCAAUCUGCCCUCAGAGCUCGAGAACAUCUUCGGAUGCAGAGGAGGCAGGCUUCGGUGGCGCGAUAGCGCCAACGUCCUCAACCUCCAAUGCAUCCCACCACAUGAUGAUGCCUGAAGAGCCUUGGUUUUUUG

Variants of: B1
Experiment: polymerase ribozyme fitness, log enrichment relative to wild type (log ratio); higher = more active; in vitro selection for triplet polymerase activity
How it was run: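 Both subunits of a heterodimeric triplet polymerase ribozyme were given their own mutant library, built by PCR and transcribed. Each library was annealed with a biotinylated primer, the partner subunit and triplets, incubated frozen at −7 °C, and its extended constructs gel-excised, captured on streptavidin beads and amplified by RT-PCR, all in one round done in triplicate. Fitness is the logarithm of genotype enrichment relative to wild-type enrichment, with replicates averaged by inverse-variance weighting. That logarithm is base 2, and Illumina-sequenced genotypes needed ≥10 input reads and ≥1 read per output.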

Row | Variant | polymerase ribozyme fitness (log ratio)
1 | A5U A43G G44A G52C G63C C124U G128U | -4.22
2 | A5U A46U G47C A50G C53U C86A C115G | -5.37
3 | A5U A50U A105U A119G | -1.86
4 | A5U A66U A75G C76A C94A G120A U130G | -5.41
5 | A5U A68G C82G | -3.79
6 | A5U A83U G120U U129C | -1.35
7 | A5U A84G U96C G113U | -4.28
8 | A5U A91C U96G A121G | -0.932
9 | A5U A95C G120C | 0.108
10 | A5U A121U | 1.1
11 | A5U C8G C15A A41U G48A C49U G113A U129C | -5.44
12 | A5U C11A C102A | -4.33
13 | A5U C11G A29U | -3.66
14 | A5U C11G C12U G61U A111C G113A | -4.88
15 | A5U C11G C56U | -0.378
16 | A5U C11G C94U C104A G110C | -5.6
17 | A5U C11U U54A C89A | -2.83
18 | A5U C12U | 0.00871
19 | A5U C12U U21G A27C A46G A90G G120U | -2.99
20 | A5U C13A C28U C49U C56U G120C G135U | -5.49
21 | A5U C13U A16G G69C U92G C123A U132A | -2.65

Row | Variant | polymerase ribozyme fitness (log ratio)
22 | A5U C15G C72G A119G A121U | 0.915
23 | A5U C28G U96A C114U | -5.96
24 | A5U C31U U112A | -3.97
25 | A5U C34G | -6.92
26 | A5U C40U G48A | -2.13
27 | A5U C49A | -2.06
28 | A5U C53U | -0.883
29 | A5U C53U C64U U106A | -0.639
30 | A5U C53U U92A G113U | -4.65
31 | A5U C56G C114U | -4.21
32 | A5U C62A | -0.777
33 | A5U C64U | -0.49
34 | A5U C64U C79U G110A A111G U130C | -0.201
35 | A5U C70A | -2.56
36 | A5U C70G | -2.83
37 | A5U C72A | -0.164
38 | A5U C73A G122A U126G | -2.29
39 | A5U C86A | -0.495
40 | A5U C94U | -1.16
41 | A5U C114A | -1.69
42 | A5U G10A A37U U55G | -0.809

Row | Variant | polymerase ribozyme fitness (log ratio)
43 | A5U G10A C86U C102U G113A G128C | -5.52
44 | A5U G10A G36C G60C U78C C124U | -2.58
45 | A5U G10U G45C G51A A118U G120A | -2.81
46 | A5U G36U | -1.3
47 | A5U G39C A105U | -3.56
48 | A5U G39U | -1.13
49 | A5U G44A A74U C82G U87G | -4.13
50 | A5U G44C C73U | -1.65
51 | A5U G44C G60U U96G G127A U131G | -3.9
52 | A5U G47A | -1.21
53 | A5U G47A C124U U126A | 0.649
54 | A5U G47A G113U | -3.72
55 | A5U G47U A121U C124U | 0.495
56 | A5U G52C C73A C101U U106A U109C G135U | -5.42
57 | A5U G52U U54A | -1.51
58 | A5U G60C C124U | -0.742
59 | A5U G60U | -0.228
60 | A5U G61A | -0.0027
61 | A5U G61C C88A | -2.27
62 | A5U G61U C124A | 1.19
63 | A5U G63C | -0.837

Row | Variant | polymerase ribozyme fitness (log ratio)
64 | A5U G63C C85A C101A A118U | -2.94
65 | A5U G63C G117A | -3.54
66 | A5U G63U G110A | -2.89
67 | A5U G71C C102G C114G C115G | -6.55
68 | A5U G71U | -0.497
69 | A5U U9C C31U G39A G120U | -3.67
70 | A5U U9C G45A | -0.0819
71 | A5U U9G C62A | -0.961
72 | A5U U9G G47A G52U | -1.96
73 | A5U U14G U59A C62U | -2.15
74 | A5U U38A G42U C72U A74U C85A C101A | -5.64
75 | A5U U54C G60A U112C | 1.52
76 | A5U U59A U92A U129G | -3.92
77 | A5U U81A | -1.15
78 | A5U U112A A118U U125C | 0.369
79 | A6C A16C G44C | -3.74
80 | A6C A18U | -2.13
81 | A6C A24G A26G U87G U112C A121G | -0.944
82 | A6C A24G A37U G48C G69C C79G C85G C101A C124U | -5.82
83 | A6C A26U C62U | -2.91
84 | A6C A27G A121C | -0.0909
